Test results reported in publication PMC9714796, “Macrophage TGF-β signaling is critical for wound healing with heterotopic ossification after trauma” (JCI Insight, 2022).

B1: TGF-βRII-Fc (muTGFbRII-mFc) (Fc fusion, UniProt Q62312 24-166, looked up)
chain: IPPHVPKSVNSDVMASDNGGAVKLPQLCKFCDVRLSTCDNQKSCMSNCSITAICEKPHEVCVAVWRKNDKNITLETVCHDPKLTYHGFTLEDAASPKCVMKEKKRAGETFFMCACNMEECNDYIIFSEEYTTSSPDLLLVIIQ
B2: Transforming growth factor-β3 (TGF-β3) (ligand, UniProt P10600 301-412, looked up)
chain: ALDTNYCFRNLEENCCVRPLYIDFRQDLGWKWVHEPKGYYANFCSGPCPYLRSADTTHSTVLGLYNTLNPEASASPCCVPQDLEPLTILYYVGRTPKVEQLSNMVVKSCKCS
notes: TGF-β3 ligand used as SPR analyte

What was measured:
[1] = molecular target: Transforming growth factor-β1 (TGF-β1) (UniProt P01137 279-390); assay: cell-based or functional assay
[2] = molecular target: B2; assay: cell-based or functional assay
[3] = molecular target: B1; assay: SPR; Biacore T100; TGF-βRII-Fc captured (~50 RU) by an anti-mouse Fc antibody amine-coupled to a CM5 chip; ligand injected at 0.013-10 nM (0.013-1.1 nM used for the fit); HBS-EP with 350 mM NaCl and 0.5 mg/mL BSA; 1:1 model with mass transport, KD = kd/ka; details: both partners purified

Transforming growth factor-β1 (TGF-β1), sequence (P01137 279-390): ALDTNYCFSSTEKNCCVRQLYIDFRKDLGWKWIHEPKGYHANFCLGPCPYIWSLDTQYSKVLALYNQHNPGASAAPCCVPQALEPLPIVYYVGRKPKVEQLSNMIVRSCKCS

IC50 of TGF-βRII-Fc against TGF-β1 (640 pg/mL) signalling in A549 cells with the (CAGA)12 luciferase reporter [1] [nM] | IC50 of TGF-βRII-Fc against TGF-β3 (270 pg/mL) signalling in A549 cells with the (CAGA)12 luciferase reporter [2] [nM] | Kd [3] [nM] | Binder
0.0229 | 0.00446 | – | B1
– | – | 0.0112 | B2
